The target of data set [1] is ASK1(1290–1374), C-terminal SAM domain of ASK1 (human) (UniProt Q99683). As to the kind of experiment: SAXS.
In data set [2] the target is ASK2(1216–1288), C-terminal SAM domain of ASK2 (human) (UniProt O95382). As to the kind of experiment: AUC.
The data set “SAXS” concerns the molecule itself. As to the kind of experiment: SAXS.
Another data set deals with T1, GST-ASK2 SAM domain (human, UniProt O95382 1216-1288).
T1 sequence (looked up): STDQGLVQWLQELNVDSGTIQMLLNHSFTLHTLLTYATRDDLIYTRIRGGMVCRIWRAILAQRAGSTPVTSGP
The data set is described as follows: pull-down.

The data set “SEC” deals with the molecule itself. The data set is described as follows: SEC.

“ASK1(1290–1374), C-terminal SAM domain of ASK1 (from UniProt Q99683 1290-1374) (domain or fragment)”: the stoichiometry N (in general, the number of molecules, sites or subunits per partner or assembly) in data set [1] is 2.

In data set [2], “ASK2(1216–1288), C-terminal SAM domain of ASK2 (from UniProt O95382 1216-1288) (domain or fragment)” gave a stoichiometry N of 2.

B1: ASK3(1241–1313), C-terminal SAM domain of ASK3 (domain or fragment, human, UniProt Q6ZN16 1241-1313, looked up)
chain: DKELIDWLRLQGADAKTIEKIVEEGYTLSDILNEITKEDLRYLRLRGGLLCRLWSAVSQYRRAQEASETKDKA
Regarding B1, the “stoichiometry N” value in the data set “SAXS” stood at 6. Moreover, the binding result with GST-ASK2 SAM domain was “binds”.

B2: ASK3 SAM domain K1242E (domain or fragment, human, UniProt Q6ZN16 1241-1313, looked up)
chain: DEELIDWLRLQGADAKTIEKIVEEGYTLSDILNEITKEDLRYLRLRGGLLCRLWSAVSQYRRAQEASETKDKA
B2: the binding result in “SEC” is “binds”.

B3: ASK3 SAM domain Q1304A (domain or fragment, human, UniProt Q6ZN16 1241-1313, looked up)
chain: DKELIDWLRLQGADAKTIEKIVEEGYTLSDILNEITKEDLRYLRLRGGLLCRLWSAVSQYRRAAEASETKDKA
B3: the binding result in the data set “SEC” is given as “binds”.

B4: ASK3 SAM domain V1262N (domain or fragment, human, UniProt Q6ZN16 1241-1313, looked up)
chain: DKELIDWLRLQGADAKTIEKINEEGYTLSDILNEITKEDLRYLRLRGGLLCRLWSAVSQYRRAQEASETKDKA
On to B4, for which the binding result in the data set “SEC” is reported as “binds”.
